The experiment concerns the target T1, 14-3-3 ζ protein (UniProt P63104 1-245).
T1 sequence (looked up): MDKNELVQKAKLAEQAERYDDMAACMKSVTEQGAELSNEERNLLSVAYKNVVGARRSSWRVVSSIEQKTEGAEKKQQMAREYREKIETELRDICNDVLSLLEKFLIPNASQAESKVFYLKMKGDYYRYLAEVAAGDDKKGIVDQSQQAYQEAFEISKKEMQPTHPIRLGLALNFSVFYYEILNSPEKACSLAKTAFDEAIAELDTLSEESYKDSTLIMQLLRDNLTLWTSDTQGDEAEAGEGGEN
The experiment can be described thus: BLI. Background: Biolayer interferometry detects binding as a change in optical thickness at a sensor tip.

Where no end group is shown, it is not given here. [ ]: non-standard residue; d: D form. pS = N[C@@H](COP(=O)(O)O)C(=O)O

Turning to GRPRTT[pS]FAE [p-Ser9 GSK 3β polypeptide (Gly3-pSer9-Glu12)], the affinity, expressed as Kd, was 46.8 µM; the off-rate (koff) turned out to be 0.0185 s⁻¹; the kon was 579 M⁻¹ s⁻¹.

For orientation: Kd means the constant that tells how readily two partners part at equilibrium. For orientation: koff means the first-order rate constant of dissociation. Higher therefore signals a short-lived complex. By kon is commonly meant a measure of how fast the partners come together. A low value points to slower complex formation.

Values taken from publication PMC9459030 (Journal of Ginseng Research, 2021).
